According to PMC4869175, “Evidence that phytochrome functions as a protein kinase in plant light signalling” (Nature Communications, 2016):

T1: AsphyA T418D, full length (Avena sativa, UniProt P06593 1-1129, T418D, phycocyanobilin chromophore assembled)
T1 construct: Avena sativa phytochrome A, full length, with T418D; source: phycocyanobilin added in vitro
T1 sequence (looked up): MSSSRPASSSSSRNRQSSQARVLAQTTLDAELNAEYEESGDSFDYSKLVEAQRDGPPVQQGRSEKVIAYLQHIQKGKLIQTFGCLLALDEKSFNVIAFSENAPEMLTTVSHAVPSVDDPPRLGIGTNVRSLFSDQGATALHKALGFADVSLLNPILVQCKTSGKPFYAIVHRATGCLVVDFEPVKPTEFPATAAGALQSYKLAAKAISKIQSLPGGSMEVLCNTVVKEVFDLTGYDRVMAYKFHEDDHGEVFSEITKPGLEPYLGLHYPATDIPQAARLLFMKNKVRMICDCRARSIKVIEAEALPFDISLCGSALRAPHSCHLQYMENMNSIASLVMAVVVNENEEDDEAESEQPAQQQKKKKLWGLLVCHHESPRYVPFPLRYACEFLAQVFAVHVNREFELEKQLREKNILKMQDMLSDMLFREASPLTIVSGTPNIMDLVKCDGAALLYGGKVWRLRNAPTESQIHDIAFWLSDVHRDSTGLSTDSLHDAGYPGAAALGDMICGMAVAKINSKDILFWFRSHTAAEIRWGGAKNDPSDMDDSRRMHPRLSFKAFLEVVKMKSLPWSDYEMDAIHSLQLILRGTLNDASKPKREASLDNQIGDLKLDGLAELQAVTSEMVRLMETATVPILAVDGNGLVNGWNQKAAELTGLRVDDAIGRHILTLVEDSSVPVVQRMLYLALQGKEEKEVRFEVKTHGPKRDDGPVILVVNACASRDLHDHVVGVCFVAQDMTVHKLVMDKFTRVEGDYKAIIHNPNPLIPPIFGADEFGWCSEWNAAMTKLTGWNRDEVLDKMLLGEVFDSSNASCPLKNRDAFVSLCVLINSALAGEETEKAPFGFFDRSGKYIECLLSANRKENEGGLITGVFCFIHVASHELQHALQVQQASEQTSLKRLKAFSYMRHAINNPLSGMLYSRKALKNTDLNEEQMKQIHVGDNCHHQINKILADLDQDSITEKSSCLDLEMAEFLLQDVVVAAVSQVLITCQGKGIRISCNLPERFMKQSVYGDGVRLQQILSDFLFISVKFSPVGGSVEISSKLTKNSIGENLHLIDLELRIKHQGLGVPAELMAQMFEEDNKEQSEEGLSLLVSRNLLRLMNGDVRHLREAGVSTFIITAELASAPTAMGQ

T2: AsphyA K411L, full length (Avena sativa, UniProt P06593 1-1129, K411L, phycocyanobilin chromophore assembled)
T2 construct: Avena sativa phytochrome A, full length, with K411L; source: phycocyanobilin added in vitro
T2 sequence (looked up): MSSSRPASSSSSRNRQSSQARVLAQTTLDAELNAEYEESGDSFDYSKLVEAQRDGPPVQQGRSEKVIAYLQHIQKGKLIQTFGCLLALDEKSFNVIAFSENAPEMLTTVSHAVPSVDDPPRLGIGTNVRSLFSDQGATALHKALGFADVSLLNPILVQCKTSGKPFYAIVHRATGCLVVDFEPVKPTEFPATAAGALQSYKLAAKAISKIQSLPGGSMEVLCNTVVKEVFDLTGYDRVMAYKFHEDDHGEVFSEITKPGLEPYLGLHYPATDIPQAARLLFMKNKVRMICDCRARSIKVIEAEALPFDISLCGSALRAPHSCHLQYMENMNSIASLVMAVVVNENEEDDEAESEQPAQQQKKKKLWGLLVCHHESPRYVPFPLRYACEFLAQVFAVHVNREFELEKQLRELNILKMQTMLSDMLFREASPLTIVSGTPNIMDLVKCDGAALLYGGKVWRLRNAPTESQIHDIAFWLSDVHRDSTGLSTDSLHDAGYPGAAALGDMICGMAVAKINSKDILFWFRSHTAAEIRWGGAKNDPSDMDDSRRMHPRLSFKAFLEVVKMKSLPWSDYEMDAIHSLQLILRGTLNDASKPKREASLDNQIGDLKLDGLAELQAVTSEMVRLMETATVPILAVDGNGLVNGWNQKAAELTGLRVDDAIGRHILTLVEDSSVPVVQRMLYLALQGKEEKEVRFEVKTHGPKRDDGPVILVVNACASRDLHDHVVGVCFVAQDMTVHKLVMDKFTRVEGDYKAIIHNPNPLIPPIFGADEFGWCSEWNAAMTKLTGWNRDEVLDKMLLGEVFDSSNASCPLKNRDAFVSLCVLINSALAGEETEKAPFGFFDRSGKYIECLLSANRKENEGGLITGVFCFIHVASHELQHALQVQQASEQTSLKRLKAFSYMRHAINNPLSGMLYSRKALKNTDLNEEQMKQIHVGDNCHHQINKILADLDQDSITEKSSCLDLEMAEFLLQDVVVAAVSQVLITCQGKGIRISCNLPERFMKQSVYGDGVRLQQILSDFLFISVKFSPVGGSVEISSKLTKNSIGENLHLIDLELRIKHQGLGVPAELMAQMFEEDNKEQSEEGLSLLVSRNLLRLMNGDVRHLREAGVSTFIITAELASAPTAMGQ


What was measured:
[1] = target: T1, AsphyA T418D, full length; assay: pull-down; GST/strep-fused interacting protein (1.0 μg) held on glutathione resin, phytochrome (1.0 μg) in solution, Pr and Pfr forms both tested; 60 min at 4 °C in pull-down buffer (100 mM Tris-HCl pH 7.8, 1 mM EDTA, 150 mM NaCl, 100 μg/ml BSA); western blot with oat22 and anti-GST; settings: both partners purified
[2] = target: T2, AsphyA K411L, full length; assay: as above; settings: both partners purified

binding result [1]	binding result [2]	Binder
binds	binds	GST/strep-fused FHL (natural protein, UniProt A8MR65 1-201, looked up, FHL, which with FHY1 takes part in the nuclear localization of phyA; not shown: GST, N-terminal, kept) MDDADKSCSPSLDHSDINDPMIVAVESLDTSKKRKLHAEESDLLPLPKHFCSEHQASLVNSSCPSSVIDYAECSYAMENTKTSDEASSSASFTGPSLYMFKDSIYSTGSSSSGYAATSSIEQCFSKVDHKTQEDTQDFTHMEFIYHDSEFAVEDLQEVLNPVESYILSSARWSVSNQDSKEATTKPTIDQEFEQYFSTLMM
binds	binds	GST/strep-fused PIF3 (natural protein, UniProt O80536 1-524, looked up, Probably Arabidopsis PIF3, as PIF1 and PIF4 are called Arabidopsis; not shown: GST, N-terminal, kept) MPLFELFRLTKAKLESAQDRNPSPPVDEVVELVWENGQISTQSQSSRSRNIPPPQANSSRAREIGNGSKTTMVDEIPMSVPSLMTGLSQDDDFVPWLNHHPSLDGYCSDFLRDVSSPVTVNEQESDMAVNQTAFPLFQRRKDGNESAPAASSSQYNGFQSHSLYGSDRARDLPSQQTNPDRFTQTQEPLITSNKPSLVNFSHFLRPATFAKTTNNNLHDTKEKSPQSPPNVFQTRVLGAKDSEDKVLNESVASATPKDNQKACLISEDSCRKDQESEKAVVCSSVGSGNSLDGPSESPSLSLKRKHSNIQDIDCHSEDVEEESGDGRKEAGPSRTGLGSKRSRSAEVHNLSERRRRDRINEKMRALQELIPNCNKVDKASMLDEAIEYLKSLQLQVQIMSMASGYYLPPAVMFPPGMGHYPAAAAAMAMGMGMPYAMGLPDLSRGGSSVNHGPQFQVSGMQQQPVAMGIPRVSGGGIFAGSSTIGNGSTRDLSGSKDQTTTNNNSNLKPIKRKQGSSDQFCGSS
binds	binds	GST/strep-fused FHY1 (far-red elongated hypocotyl 1) (natural protein, UniProt Q8S4Q6 1-202, looked up, FHY1 (far-red elongated hypocotyl 1); not shown: GST, N-terminal, kept) MPEVEVDNNNEKPSEINSFHHMIISSSKNVLKMEEVEVSKKRKFQTDQSDELSLLPLSKHTCFANVACSENTNGNSEIDTEYSMSSYVNSTTSMECNNDIEMKEESSGSCGEDKMISFESHLDYIYGTQNLEDFSEKVIENILYLDEQEEEEEDAKGCSSNAAKFVLSSGRWTVNQDDSTLHETKKPTIDQEFEQYFSTLML
